Measurements as given in patent US20200087373A1 (UNIVERSITY OF COPENHAGEN, published 2020).
Ends that are not written are not given here. * marks the point of attachment. C16 diacid = O=C(O)CCCCCCCCCCCCCCC(=O)*

T1: human GIP receptor (human, UniProt P48546 22-466)
T1 sequence (looked up): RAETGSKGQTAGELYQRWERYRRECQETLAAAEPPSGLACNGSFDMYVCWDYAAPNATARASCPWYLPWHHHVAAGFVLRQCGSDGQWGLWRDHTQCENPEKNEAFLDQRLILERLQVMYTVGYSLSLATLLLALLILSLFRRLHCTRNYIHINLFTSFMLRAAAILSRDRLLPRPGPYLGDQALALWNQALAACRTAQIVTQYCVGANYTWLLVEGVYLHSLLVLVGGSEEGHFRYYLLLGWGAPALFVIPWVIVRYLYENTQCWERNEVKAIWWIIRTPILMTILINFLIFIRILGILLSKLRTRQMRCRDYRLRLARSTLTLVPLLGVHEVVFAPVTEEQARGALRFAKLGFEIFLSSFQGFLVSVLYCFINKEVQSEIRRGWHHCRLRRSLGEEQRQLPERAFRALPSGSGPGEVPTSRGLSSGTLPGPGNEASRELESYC

B1: AT156 [hGIP(5-30)NH2[H18K]-C16diacid/18] (peptide)
peptide: TFISDYSIAMDKIK(C16 diacid)QQDFVNWLLAQK-NH2
modifications: N-terminus assumed
SMILES: CC[C@H](C)[C@H](NC(=O)[C@H](CO)NC(=O)[C@H](Cc1ccc(O)cc1)NC(=O)[C@H](CC(=O)O)NC(=O)[C@H](CO)NC(=O)[C@@H](NC(=O)[C@H](Cc1ccccc1)NC(=O)[C@@H](N)[C@@H](C)O)[C@@H](C)CC)C(=O)N[C@@H](C)C(=O)N[C@@H](CCSC)C(=O)N[C@@H](CC(=O)O)C(=O)N[C@@H](CCCCN)C(=O)N[C@H](C(=O)N[C@@H](CCCCNC(=O)CCCCCCCCCCCCCCC(=O)O)C(=O)N[C@@H](CCC(N)=O)C(=O)N[C@@H](CCC(N)=O)C(=O)N[C@@H](CC(=O)O)C(=O)N[C@@H](Cc1ccccc1)C(=O)N[C@H](C(=O)N[C@@H](CC(N)=O)C(=O)N[C@@H](Cc1c[nH]c2ccccc12)C(=O)N[C@@H](CC(C)C)C(=O)N[C@@H](CC(C)C)C(=O)N[C@@H](C)C(=O)N[C@@H](CCC(N)=O)C(=O)N[C@@H](CCCCN)C(N)=O)C(C)C)[C@@H](C)CC
B2: AT168 [hGIP(5-30)NH2[F6K]-C16diacid/6] (peptide)
peptide: TKISDYSIAMDKIHQQDFVNWLLAQK
modifications: C16-diacid (1,16-hexadecanedioic acid) on Lys at position 6 in GIP numbering (residue 2 of the entry); C-terminal amide
B3: AT172 [hGIP(5-30)NH2[Y10K]-C16diacid/10] (peptide)
peptide: TFISDK(C16 diacid)SIAMDKIHQQDFVNWLLAQK-NH2
modifications: N-terminus assumed
SMILES: CC[C@H](C)[C@H](NC(=O)[C@H](CO)NC(=O)[C@H](CCCCNC(=O)CCCCCCCCCCCCCCC(=O)O)NC(=O)[C@H](CC(=O)O)NC(=O)[C@H](CO)NC(=O)[C@@H](NC(=O)[C@H](Cc1ccccc1)NC(=O)[C@@H](N)[C@@H](C)O)[C@@H](C)CC)C(=O)N[C@@H](C)C(=O)N[C@@H](CCSC)C(=O)N[C@@H](CC(=O)O)C(=O)N[C@@H](CCCCN)C(=O)N[C@H](C(=O)N[C@@H](Cc1c[nH]cn1)C(=O)N[C@@H](CCC(N)=O)C(=O)N[C@@H](CCC(N)=O)C(=O)N[C@@H](CC(=O)O)C(=O)N[C@@H](Cc1ccccc1)C(=O)N[C@H](C(=O)N[C@@H](CC(N)=O)C(=O)N[C@@H](Cc1c[nH]c2ccccc12)C(=O)N[C@@H](CC(C)C)C(=O)N[C@@H](CC(C)C)C(=O)N[C@@H](C)C(=O)N[C@@H](CCC(N)=O)C(=O)N[C@@H](CCCCN)C(N)=O)C(C)C)[C@@H](C)CC
B4: AT173 [hGIP(5-30)NH2[S11K]-C16diacid/11] (peptide)
peptide: TFISDYK(C16 diacid)IAMDKIHQQDFVNWLLAQK-NH2
modifications: N-terminus assumed
SMILES: CC[C@H](C)[C@H](NC(=O)[C@H](CCCCNC(=O)CCCCCCCCCCCCCCC(=O)O)NC(=O)[C@H](Cc1ccc(O)cc1)NC(=O)[C@H](CC(=O)O)NC(=O)[C@H](CO)NC(=O)[C@@H](NC(=O)[C@H](Cc1ccccc1)NC(=O)[C@@H](N)[C@@H](C)O)[C@@H](C)CC)C(=O)N[C@@H](C)C(=O)N[C@@H](CCSC)C(=O)N[C@@H](CC(=O)O)C(=O)N[C@@H](CCCCN)C(=O)N[C@H](C(=O)N[C@@H](Cc1c[nH]cn1)C(=O)N[C@@H](CCC(N)=O)C(=O)N[C@@H](CCC(N)=O)C(=O)N[C@@H](CC(=O)O)C(=O)N[C@@H](Cc1ccccc1)C(=O)N[C@H](C(=O)N[C@@H](CC(N)=O)C(=O)N[C@@H](Cc1c[nH]c2ccccc12)C(=O)N[C@@H](CC(C)C)C(=O)N[C@@H](CC(C)C)C(=O)N[C@@H](C)C(=O)N[C@@H](CCC(N)=O)C(=O)N[C@@H](CCCCN)C(N)=O)C(C)C)[C@@H](C)CC
B5: AT170 [hGIP(5-30)NH2[S8K]-C16diacid/8] (peptide)
peptide: TFIK(C16 diacid)DYSIAMDKIHQQDFVNWLLAQK-NH2
modifications: N-terminus assumed
SMILES: CC[C@H](C)[C@H](NC(=O)[C@H](CO)NC(=O)[C@H](Cc1ccc(O)cc1)NC(=O)[C@H](CC(=O)O)NC(=O)[C@H](CCCCNC(=O)CCCCCCCCCCCCCCC(=O)O)NC(=O)[C@@H](NC(=O)[C@H](Cc1ccccc1)NC(=O)[C@@H](N)[C@@H](C)O)[C@@H](C)CC)C(=O)N[C@@H](C)C(=O)N[C@@H](CCSC)C(=O)N[C@@H](CC(=O)O)C(=O)N[C@@H](CCCCN)C(=O)N[C@H](C(=O)N[C@@H](Cc1c[nH]cn1)C(=O)N[C@@H](CCC(N)=O)C(=O)N[C@@H](CCC(N)=O)C(=O)N[C@@H](CC(=O)O)C(=O)N[C@@H](Cc1ccccc1)C(=O)N[C@H](C(=O)N[C@@H](CC(N)=O)C(=O)N[C@@H](Cc1c[nH]c2ccccc12)C(=O)N[C@@H](CC(C)C)C(=O)N[C@@H](CC(C)C)C(=O)N[C@@H](C)C(=O)N[C@@H](CCC(N)=O)C(=O)N[C@@H](CCCCN)C(N)=O)C(C)C)[C@@H](C)CC
B6: AT169 [hGIP(5-30)NH2[I7K]-C16diacid/7] (peptide)
peptide: TFK(C16 diacid)SDYSIAMDKIHQQDFVNWLLAQK-NH2
modifications: N-terminus assumed
SMILES: CC[C@H](C)[C@H](NC(=O)[C@H](CO)NC(=O)[C@H](Cc1ccc(O)cc1)NC(=O)[C@H](CC(=O)O)NC(=O)[C@H](CO)NC(=O)[C@H](CCCCNC(=O)CCCCCCCCCCCCCCC(=O)O)NC(=O)[C@H](Cc1ccccc1)NC(=O)[C@@H](N)[C@@H](C)O)C(=O)N[C@@H](C)C(=O)N[C@@H](CCSC)C(=O)N[C@@H](CC(=O)O)C(=O)N[C@@H](CCCCN)C(=O)N[C@H](C(=O)N[C@@H](Cc1c[nH]cn1)C(=O)N[C@@H](CCC(N)=O)C(=O)N[C@@H](CCC(N)=O)C(=O)N[C@@H](CC(=O)O)C(=O)N[C@@H](Cc1ccccc1)C(=O)N[C@H](C(=O)N[C@@H](CC(N)=O)C(=O)N[C@@H](Cc1c[nH]c2ccccc12)C(=O)N[C@@H](CC(C)C)C(=O)N[C@@H](CC(C)C)C(=O)N[C@@H](C)C(=O)N[C@@H](CCC(N)=O)C(=O)N[C@@H](CCCCN)C(N)=O)C(C)C)[C@@H](C)CC
B7: AT171 [hGIP(5-30)NH2[D9K]-C16diacid/9] (peptide)
peptide: TFISK(C16 diacid)YSIAMDKIHQQDFVNWLLAQK-NH2
modifications: N-terminus assumed
SMILES: CC[C@H](C)[C@H](NC(=O)[C@H](CO)NC(=O)[C@H](Cc1ccc(O)cc1)NC(=O)[C@H](CCCCNC(=O)CCCCCCCCCCCCCCC(=O)O)NC(=O)[C@H](CO)NC(=O)[C@@H](NC(=O)[C@H](Cc1ccccc1)NC(=O)[C@@H](N)[C@@H](C)O)[C@@H](C)CC)C(=O)N[C@@H](C)C(=O)N[C@@H](CCSC)C(=O)N[C@@H](CC(=O)O)C(=O)N[C@@H](CCCCN)C(=O)N[C@H](C(=O)N[C@@H](Cc1c[nH]cn1)C(=O)N[C@@H](CCC(N)=O)C(=O)N[C@@H](CCC(N)=O)C(=O)N[C@@H](CC(=O)O)C(=O)N[C@@H](Cc1ccccc1)C(=O)N[C@H](C(=O)N[C@@H](CC(N)=O)C(=O)N[C@@H](Cc1c[nH]c2ccccc12)C(=O)N[C@@H](CC(C)C)C(=O)N[C@@H](CC(C)C)C(=O)N[C@@H](C)C(=O)N[C@@H](CCC(N)=O)C(=O)N[C@@H](CCCCN)C(N)=O)C(C)C)[C@@H](C)CC

These binders were tested against T1, human GIP receptor (assay: cell-based or functional assay).

Row | Binder | cAMP accumulation Fold (fold change from GIP(5-30)NH2) | cAMP accumulation IC50 | cAMP accumulation logIC50
1 | B1 | 0.9 fold | 24 nM | -7.62 log(M)
2 | B2 | 5.3 fold | 148 nM | -6.83 log(M)
3 | B3 | 14.1 fold | 389 nM | -6.41 log(M)
4 | B4 | 0.3 fold | 9.1 nM | -8.04 log(M)
5 | B5 | 32.4 fold | 891 nM | -6.05 log(M)
6 | B6 | 3 fold | 81.3 nM | -7.09 log(M)
7 | B7 | 1.1 fold | 31.6 nM | -7.5 log(M)

The binders below were run against T1, human GIP receptor (assay: 125I-hGIP(1-42) competition binding, COS-7 cells expressing human GIPR, with 2% HSA;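 also: nonspecific signal taken as radioligand bound to untransfected cells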).
Experimental: (§1) After incubation, the cells were washed twice in ice-cold binding buffer (+/−2% HSA) and lysed using 200 mM NaOH with 1% SDS for 30 min. Nonspecific binding was determined as the binding of radioactive ligand to untransfected cells.

Row | Binder | Ki
8 | B1 | 29 nM
9 | B2 | 97.7 nM
10 | B3 | 807 nM
11 | B4 | 58.7 nM
12 | B5 | 1300 nM
13 | B6 | 126 nM
14 | B7 | 500 nM

The binders below were run against T1, human GIP receptor (assay: 125I-hGIP(1-42) competition binding, COS-7 cells expressing human GIPR, without HSA;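 also: nonspecific binding defined as radioligand bound to cells lacking the transfected receptor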).
Experimental: as §1

Row | Binder | Ki
15 | B1 | 5 nM
16 | B2 | 41.3 nM
17 | B3 | 281 nM
18 | B4 | 6 nM
19 | B5 | 594 nM
20 | B6 | 26.5 nM
21 | B7 | 79.1 nM

The binders below were run against T1, human GIP receptor (assay: ratio of Ki with 2% HSA to Ki without HSA, 125I-hGIP competition binding on hGIPR COS-7 cells;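 also: nonspecific binding was defined as radioligand signal on cells lacking the receptor transfection, with cell lysates measured after washes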).
Experimental: as §1

Row | Binder | Fold (Ki + HSA / Ki - HSA)
22 | B1 | 5.8 fold
23 | B2 | 2.3 fold
24 | B3 | 2.8 fold
25 | B4 | 9.7 fold
26 | B5 | 2.2 fold
27 | B6 | 4.8 fold
28 | B7 | 6.3 fold
